Experimental data reported in paper PMC1594584.
Where “and” joins values, the source holds several entries; their conditions need not be identical. Equal values may be shown once.

Tests used:
[1] = molecular target: AβMRF (met-Aβ42-HA-M-3xHA-RF; Aβ42 fused to the N terminus of Sup35p MRF) (not stated | S. cerevisiae) (UniProt P05453); experiment: SDS electrophoresis of SDS-stable oligomers with immunoblot; yeast lysates treated with 1% SDS for 7 min at room temperature, resolved in 1.5% agarose or 7.5% polyacrylamide gels, blotted with anti-RF (BE4) or anti-Aβ (6E10); cells also grown with 6.3 mM guanidine or with HSP104 deleted; densitometry
[2] = molecular target: Aβ42 F19,20T/I31P MRF (AβMRF carrying the triple mutation Phe19,20Thr and Ile31Pro in its Aβ42 portion) (not stated | S. cerevisiae) (UniProt P05453); experiment: as above

Substance	monomer's share of the pool (HSP104 WT cells) [1] [%]	monomer's share of the pool (hsp104Δ cells) [1] [%]	stoichiometry N [1]	stoichiometry N [2]
AβMRF (met-Aβ42-HA-M-3xHA-RF; Aβ42 fused to the N terminus of Sup35p MRF) (from UniProt P05453 124-685)	34	47	2 and 3 and 4	–
Aβ42 F19,20T/I31P MRF (AβMRF carrying the triple mutation Phe19,20Thr and Ile31Pro in its Aβ42 portion) (from UniProt P05453 124-685)	–	–	–	2
